Assay results from the Immune Epitope Database (IEDB).

Key:
HLA-A*02:01 [1] = assay: IEDB peptide-MHC binding, purified MHC/direct/fluorescence; filed as Kd, often an IC50 or EC50 that approximates it; ≥ and ≤ were set here for values at or beyond the usual limits of such assays
HLA-A*69:01 [2] = assay: as above
HLA-A*02:11 [3] = assay: as above; settings: source organism: Yersinia enterocolitica subsp. enterocolitica 8081
HLA-A*02:50 = assay: IEDB peptide-MHC binding, purified MHC/competitive/fluorescence; filed as Kd, often an IC50 or EC50 that approximates it; ≥ and ≤ were set here for values at or beyond the usual limits of such assays
HLA-B*40:01 = assay: IEDB peptide-MHC binding, purified MHC/direct/fluorescence; filed as Kd, often an IC50 or EC50 that approximates it; ≥ and ≤ were set here for values at or beyond the usual limits of such assays; settings: source organism: Escherichia coli 536
HLA-A*26:01 [4] = assay: as above; settings: source organism: Escherichia coli 536
HLA-B*08:01 [5] = assay: as above; settings: source organism: Escherichia coli 536
HLA-A*01:01 = assay: as above; settings: source organism: Escherichia coli 536
HLA-A*11:01 = assay: as above; settings: source organism: Escherichia coli 536
HLA-B*07:02 [6] = assay: as above; settings: source organism: Escherichia coli 536
HLA-B*15:01 [7] = assay: as above; settings: source organism: Escherichia coli
HLA-B*58:01 [8] = assay: as above; settings: source organism: Escherichia coli 536
HLA-B*27:05 = assay: as above; settings: source organism: Escherichia coli 536
HLA-A*03:01 [9] = assay: as above; settings: source organism: Escherichia coli
HLA-A*31:01 [10] = assay: as above; settings: source organism: Escherichia coli 536
HLA-B*46:01 = assay: IEDB peptide-MHC binding, purified MHC/competitive/fluorescence; filed as Kd, often an IC50 or EC50 that approximates it; ≥ and ≤ were set here for values at or beyond the usual limits of such assays; settings: source organism: Burkholderia mallei SAVP1
HLA-A*02:19 = assay: as above; settings: source organism: Burkholderia mallei SAVP1
HLA-A*26:01 [11] = assay: as above; settings: source organism: Burkholderia mallei SAVP1
HLA-A*02:01 [12] = assay: as above; settings: source organism: Burkholderia mallei SAVP1
HLA-A*23:01 = assay: as above; settings: source organism: Burkholderia mallei SAVP1
HLA-B*18:01 = assay: as above; settings: source organism: Burkholderia mallei SAVP1
HLA-A*24:03 = assay: as above; settings: source organism: Burkholderia mallei SAVP1
HLA-A*02:03 = assay: as above; settings: source organism: Burkholderia mallei SAVP1
HLA-B*15:01 [13] = assay: as above
HLA-B*39:01 = assay: as above; settings: source organism: Burkholderia mallei SAVP1
HLA-B*57:01 = assay: as above; settings: source organism: Burkholderia mallei SAVP1
HLA-A*29:02 = assay: as above; settings: source organism: Burkholderia mallei SAVP1
HLA-B*51:01 = assay: as above
HLA-A*02:16 = assay: as above; settings: source organism: Burkholderia mallei SAVP1
HLA-B*15:17 = assay: as above; settings: source organism: Burkholderia mallei SAVP1
HLA-A*69:01 [14] = assay: as above; settings: source organism: Burkholderia mallei SAVP1
HLA-B*27:03 = assay: as above; settings: source organism: Burkholderia mallei SAVP1
HLA-A*03:01 [15] = assay: as above; settings: source organism: Burkholderia mallei SAVP1
HLA-A*02:12 = assay: as above; settings: source organism: Burkholderia mallei SAVP1
HLA-A*02:11 [16] = assay: as above; settings: source organism: Burkholderia mallei SAVP1
HLA-A*68:02 = assay: as above; settings: source organism: Burkholderia mallei SAVP1
HLA-A*31:01 [17] = assay: as above; settings: source organism: Burkholderia mallei SAVP1
HLA-B*08:01 [18] = assay: as above
HLA-B*07:02 [19] = assay: as above
HLA-B*58:01 [20] = assay: as above; settings: source organism: Escherichia coli
[21] = source organism: Yersinia pestis
[22] = source organism: Escherichia coli
[23] = source organism: Burkholderia mallei SAVP1
[24] = source organism: Salmonella enterica subsp. enterica serovar Paratyphi B str. SPB7

Sequence: FLRFGDFKL
- Kd (HLA-A*02:01 [1]; [21]): 0.0055 µM
- Kd (HLA-A*69:01 [2]; [21]): 18.3 µM
- Kd (HLA-A*02:11 [3]): 0.104 µM
- Kd (HLA-A*02:50; source organism: Yersinia pestis Nepal516): ≤ 0.0001 µM

Sequence: RMYGISPWT
- Kd (HLA-B*40:01): ≥ 20 µM
- Kd (HLA-A*26:01 [4]): ≥ 20 µM
- Kd (HLA-A*02:01 [1]; [22]): 0.507 µM
- Kd (HLA-B*08:01 [5]): ≥ 20 µM
- Kd (HLA-A*01:01): ≥ 20 µM
- Kd (HLA-A*11:01): ≥ 20 µM
- Kd (HLA-B*07:02 [6]): ≥ 20 µM
- Kd (HLA-B*15:01 [7]): 0.455 µM
- Kd (HLA-B*58:01 [8]): ≥ 20 µM
- Kd (HLA-A*69:01 [2]; source organism: Escherichia coli 536): ≥ 20 µM
- Kd (HLA-B*27:05): ≥ 20 µM
- Kd (HLA-A*03:01 [9]): 0.799 µM
- Kd (HLA-A*31:01 [10]): ≥ 20 µM
- Kd (HLA-A*02:50; [22]): 0.0184 µM

Sequence: RFNAIWFNH
- Kd (HLA-B*46:01): ≥ 20 µM
- Kd (HLA-A*02:19): ≥ 20 µM
- Kd (HLA-A*26:01 [11]): ≥ 20 µM
- Kd (HLA-A*02:01 [12]): ≥ 20 µM
- Kd (HLA-A*23:01): ≥ 20 µM
- Kd (HLA-B*18:01): ≥ 20 µM
- Kd (HLA-A*24:03): ≥ 20 µM
- Kd (HLA-A*02:03): ≥ 20 µM
- Kd (HLA-B*15:01 [13]; [23]): ≥ 20 µM
- Kd (HLA-B*39:01): ≥ 20 µM
- Kd (HLA-B*57:01): ≥ 20 µM
- Kd (HLA-A*29:02): ≥ 20 µM
- Kd (HLA-B*51:01; [23]): ≥ 20 µM
- Kd (HLA-A*02:16): ≥ 20 µM
- Kd (HLA-B*15:17): ≥ 20 µM
- Kd (HLA-A*69:01 [14]): ≥ 20 µM
- Kd (HLA-B*27:03): ≥ 20 µM
- Kd (HLA-A*03:01 [15]): ≥ 20 µM
- Kd (HLA-A*02:12): ≥ 20 µM
- Kd (HLA-A*02:11 [16]): ≥ 20 µM
- Kd (HLA-A*68:02): ≥ 20 µM
- Kd (HLA-A*31:01 [17]): 0.0041 µM

Sequence: RAAPLMQSL
- Kd (HLA-B*08:01 [18]; [22]): ≥ 20 µM
- Kd (HLA-B*07:02 [19]; [22]): 0.012 µM
- Kd (HLA-B*58:01 [20]): 0.0293 µM

Sequence: LPLAKPMVI
- Kd (HLA-B*08:01 [18]; [24]): 0.211 µM
- Kd (HLA-B*07:02 [19]; [24]): 0.0624 µM
- Kd (HLA-B*15:01 [13]; [24]): ≥ 20 µM
- Kd (HLA-B*51:01; [24]): 0.626 µM
